Target: T1, human ILT5 on the surface of peripheral blood cells (PBMC subsets, APCs) (human, UniProt O75022 24-631)
T1 construct: whole, on cells; also called surface ILT5; Immunoglobulin-like transcript 5
Test: flow cytometry, staining of human PBMCs
Excerpt: Peripheral blood mononuclear cells (PBMCs) from healthy human blood donors were stained with a murine monoclonal antibody (TRX585) comprising a heavy chain variable region comprising the amino acid sequence of SEQ ID NO: 2 or SEQ ID NO: 3, and a light chain variable region comprising the amino acid sequence of SEQ ID NO: 1. Sequencing analysis of the heavy chain variable region was inconclusive as to whether the first amino acid residue was D or E. As the two amino acids are very similar and the first residue is not in a CDR, it is highly likely that VH with D or E at the first position would have very similar if not the same ILT5-binding properties. PBMCs were also stained with antibodies specific for defined hematopoietic cell lineages and analyzed for ILT5 expression by flow cytometry.

T1 sequence (O75022 24-631): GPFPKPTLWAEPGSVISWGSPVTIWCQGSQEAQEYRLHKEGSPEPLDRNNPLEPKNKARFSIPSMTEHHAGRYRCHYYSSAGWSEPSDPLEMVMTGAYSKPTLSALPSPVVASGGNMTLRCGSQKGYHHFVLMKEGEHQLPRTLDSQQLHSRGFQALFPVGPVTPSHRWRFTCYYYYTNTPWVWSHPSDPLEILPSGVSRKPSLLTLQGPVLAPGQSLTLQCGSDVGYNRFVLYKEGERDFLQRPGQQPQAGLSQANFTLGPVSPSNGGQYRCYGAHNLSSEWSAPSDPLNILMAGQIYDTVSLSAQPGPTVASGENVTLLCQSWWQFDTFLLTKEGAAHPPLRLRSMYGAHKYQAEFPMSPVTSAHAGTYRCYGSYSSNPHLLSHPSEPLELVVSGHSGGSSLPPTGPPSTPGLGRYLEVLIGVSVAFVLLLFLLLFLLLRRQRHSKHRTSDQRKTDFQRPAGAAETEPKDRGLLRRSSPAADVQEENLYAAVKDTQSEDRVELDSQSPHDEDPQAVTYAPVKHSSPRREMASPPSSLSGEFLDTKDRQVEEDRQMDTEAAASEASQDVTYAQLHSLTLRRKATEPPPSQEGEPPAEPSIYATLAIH

- binding result: binds
B1: TRX585 mouse anti-human ILT5 monoclonal antibody (8G6 mAb, IgG1, kappa) (antibody, V domains shown)
VH: DVQLQESGPGLVKPSQSLFLTCSVTGYSISSSYYWNWIRQFPGNKLEWMGYISFDGSNNYNPSLKNRISITRDTSKNQFFLKLNSVTTEDTATYYCAREKENYYGSSFYYFDYWGLGTSLTVSS
VL: DIQMTQSPASLSVSVGETVTITCRASENIYSNLAWYQQKQGKSPQVLVYAATNLADGVPSRFSGSGSGTQFSLKINSLQSEDFGNYFCQHFWRIPWTFGGGTKLEIK
notes: Murine IgG1, kappa purified from hybridoma supernatant; also called TRX585 antibody; TRX585 mAb

From patent US20170158765A1 (Merck Sharp & Dohme, published 2017)
